# Results from patent US20220332804A1 (CSL INNOVATION, published 2022).
# T1: human C2 E433A (human, UniProt P06681 21-752)
# T1 sequence: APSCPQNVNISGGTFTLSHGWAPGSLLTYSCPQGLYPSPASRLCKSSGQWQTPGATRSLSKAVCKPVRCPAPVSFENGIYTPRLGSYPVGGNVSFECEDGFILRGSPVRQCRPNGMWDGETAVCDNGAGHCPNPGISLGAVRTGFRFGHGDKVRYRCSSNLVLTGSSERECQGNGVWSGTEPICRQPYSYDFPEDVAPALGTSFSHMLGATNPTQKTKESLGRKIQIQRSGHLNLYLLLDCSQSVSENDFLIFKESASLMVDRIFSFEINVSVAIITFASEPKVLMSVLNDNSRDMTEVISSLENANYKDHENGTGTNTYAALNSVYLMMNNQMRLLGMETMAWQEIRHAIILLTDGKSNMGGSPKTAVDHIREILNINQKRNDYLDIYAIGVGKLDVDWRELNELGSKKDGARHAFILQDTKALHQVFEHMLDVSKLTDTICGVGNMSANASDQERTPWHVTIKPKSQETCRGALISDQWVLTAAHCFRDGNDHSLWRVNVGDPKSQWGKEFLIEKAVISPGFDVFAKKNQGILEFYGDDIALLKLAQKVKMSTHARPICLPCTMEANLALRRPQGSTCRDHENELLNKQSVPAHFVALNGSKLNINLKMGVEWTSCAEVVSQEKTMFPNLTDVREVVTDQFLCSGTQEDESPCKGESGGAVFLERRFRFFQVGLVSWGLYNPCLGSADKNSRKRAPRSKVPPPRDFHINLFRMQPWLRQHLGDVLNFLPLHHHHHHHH
# T2: human C2 A436S (human, UniProt P06681 21-752)
# T2 sequence: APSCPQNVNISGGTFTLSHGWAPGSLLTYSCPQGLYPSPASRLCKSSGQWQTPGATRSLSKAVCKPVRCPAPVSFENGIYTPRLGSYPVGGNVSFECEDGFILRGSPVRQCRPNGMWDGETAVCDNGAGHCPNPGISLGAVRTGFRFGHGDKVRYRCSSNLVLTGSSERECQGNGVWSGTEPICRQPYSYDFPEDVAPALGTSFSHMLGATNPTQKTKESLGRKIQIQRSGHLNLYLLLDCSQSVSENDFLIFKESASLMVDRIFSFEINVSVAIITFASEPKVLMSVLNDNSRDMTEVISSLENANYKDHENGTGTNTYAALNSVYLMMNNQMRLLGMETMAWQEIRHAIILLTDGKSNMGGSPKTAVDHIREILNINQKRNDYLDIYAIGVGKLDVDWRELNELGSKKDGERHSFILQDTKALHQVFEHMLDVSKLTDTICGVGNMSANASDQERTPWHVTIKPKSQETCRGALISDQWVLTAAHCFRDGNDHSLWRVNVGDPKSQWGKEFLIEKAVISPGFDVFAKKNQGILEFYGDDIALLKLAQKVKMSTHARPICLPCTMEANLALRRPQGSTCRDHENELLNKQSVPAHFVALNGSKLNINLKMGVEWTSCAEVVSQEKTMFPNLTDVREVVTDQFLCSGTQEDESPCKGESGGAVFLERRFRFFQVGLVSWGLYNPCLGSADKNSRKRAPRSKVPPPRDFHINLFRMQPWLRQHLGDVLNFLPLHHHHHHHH
# T3: human C2 N327A (human, UniProt P06681 21-752)
# T3 sequence: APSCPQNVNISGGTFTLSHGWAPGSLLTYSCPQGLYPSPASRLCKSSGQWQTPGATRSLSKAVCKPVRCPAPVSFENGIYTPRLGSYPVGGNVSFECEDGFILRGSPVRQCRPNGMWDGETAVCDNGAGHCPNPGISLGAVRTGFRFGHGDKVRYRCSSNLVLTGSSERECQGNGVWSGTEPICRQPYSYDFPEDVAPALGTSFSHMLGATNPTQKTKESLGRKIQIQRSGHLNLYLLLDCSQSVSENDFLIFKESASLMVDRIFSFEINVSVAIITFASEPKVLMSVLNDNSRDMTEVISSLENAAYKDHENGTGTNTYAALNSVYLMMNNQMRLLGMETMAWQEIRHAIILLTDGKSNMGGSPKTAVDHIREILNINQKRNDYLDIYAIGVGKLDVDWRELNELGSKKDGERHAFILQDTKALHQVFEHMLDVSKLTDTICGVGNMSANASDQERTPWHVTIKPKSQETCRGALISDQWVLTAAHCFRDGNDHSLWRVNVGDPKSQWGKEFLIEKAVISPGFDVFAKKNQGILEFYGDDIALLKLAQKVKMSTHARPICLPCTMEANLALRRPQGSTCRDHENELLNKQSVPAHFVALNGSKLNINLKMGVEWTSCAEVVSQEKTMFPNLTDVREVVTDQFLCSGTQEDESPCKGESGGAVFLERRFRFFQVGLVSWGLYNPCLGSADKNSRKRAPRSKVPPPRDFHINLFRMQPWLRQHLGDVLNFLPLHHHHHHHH
# T4: human C2 A326S (human, UniProt P06681 21-752)
# T4 sequence: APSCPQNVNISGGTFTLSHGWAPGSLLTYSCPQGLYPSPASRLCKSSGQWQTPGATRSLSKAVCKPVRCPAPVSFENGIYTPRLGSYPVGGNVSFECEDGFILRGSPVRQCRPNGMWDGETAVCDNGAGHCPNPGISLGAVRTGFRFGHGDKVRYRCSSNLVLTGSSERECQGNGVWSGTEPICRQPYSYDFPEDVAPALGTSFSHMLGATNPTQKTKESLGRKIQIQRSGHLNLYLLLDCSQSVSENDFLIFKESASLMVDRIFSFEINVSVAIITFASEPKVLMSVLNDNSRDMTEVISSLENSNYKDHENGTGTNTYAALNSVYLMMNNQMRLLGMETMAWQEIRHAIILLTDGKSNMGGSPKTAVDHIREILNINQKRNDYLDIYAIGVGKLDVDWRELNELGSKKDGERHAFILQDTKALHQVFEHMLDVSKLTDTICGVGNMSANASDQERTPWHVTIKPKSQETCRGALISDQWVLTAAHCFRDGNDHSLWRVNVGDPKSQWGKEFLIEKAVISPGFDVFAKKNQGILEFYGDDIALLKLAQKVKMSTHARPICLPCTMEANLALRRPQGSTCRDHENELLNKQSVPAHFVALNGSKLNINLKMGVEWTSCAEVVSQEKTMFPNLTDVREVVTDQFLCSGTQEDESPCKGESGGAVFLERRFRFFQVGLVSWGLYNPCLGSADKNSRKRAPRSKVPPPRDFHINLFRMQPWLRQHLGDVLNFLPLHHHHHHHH
# Key:
# Test in all cases: SPR, KD relative to WT C2;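 also: biacore SPR at 37 °C, anti-C2 mAbs captured on anti-human IgG chips with alanine or serine point mutants of C2 as analyte, KD from 1:1 fit compared with wild-type C2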
# human C2 E433A = molecular target: T1, human C2 E433A
# human C2 A436S = molecular target: T2, human C2 A436S
# human C2 N327A = molecular target: T3, human C2 N327A
# human C2 A326S = molecular target: T4, human C2 A326S
binder,measurement,setting,value
"RF16-242 (antibody, human IgG4 S228P, lambda, V domains shown, pH-dependent anti-C2 antibody from a phage display library) VH: EVQLLQSGAEVKKPGESLKISCKGSGYSFTSYWIGWVRQMPGKGLEWMGIIYPGDSDTRYSPSFQGQVTISADKSISTAYLQWSSLKASDTAMYYCARRGHYGDYFDYWGQGTLVTVSS VL: SYELTQPPSVSVSPGQTARITCSGDALPKKYAYWYHQKSGQAPVLVIYEDRRRPSEIPERFSGSSSGTMATLTITGAQVEDEGVYFCYSRDRAGNQRVFGGGTQLTVLG",Fold diff,human C2 E433A,0 fold
same,Fold diff,human C2 A436S,1 fold
same,Fold diff,human C2 N327A,5 fold
same,Fold diff,human C2 A326S,1 fold
